Results taken from patent publication US20190336574A1 (TRUSTEES OF PRINCETON UNIVERSITY, published 2019).

T1: murine SND1, wild type (mouse, UniProt Q78PY7 1-910)
T1 construct: Endogenous protein of murine PyMT mammary tumor cells; also called SND1 (in PyMT tumor cells); WT shRNA-resistant murine SND1
T1 sequence (looked up): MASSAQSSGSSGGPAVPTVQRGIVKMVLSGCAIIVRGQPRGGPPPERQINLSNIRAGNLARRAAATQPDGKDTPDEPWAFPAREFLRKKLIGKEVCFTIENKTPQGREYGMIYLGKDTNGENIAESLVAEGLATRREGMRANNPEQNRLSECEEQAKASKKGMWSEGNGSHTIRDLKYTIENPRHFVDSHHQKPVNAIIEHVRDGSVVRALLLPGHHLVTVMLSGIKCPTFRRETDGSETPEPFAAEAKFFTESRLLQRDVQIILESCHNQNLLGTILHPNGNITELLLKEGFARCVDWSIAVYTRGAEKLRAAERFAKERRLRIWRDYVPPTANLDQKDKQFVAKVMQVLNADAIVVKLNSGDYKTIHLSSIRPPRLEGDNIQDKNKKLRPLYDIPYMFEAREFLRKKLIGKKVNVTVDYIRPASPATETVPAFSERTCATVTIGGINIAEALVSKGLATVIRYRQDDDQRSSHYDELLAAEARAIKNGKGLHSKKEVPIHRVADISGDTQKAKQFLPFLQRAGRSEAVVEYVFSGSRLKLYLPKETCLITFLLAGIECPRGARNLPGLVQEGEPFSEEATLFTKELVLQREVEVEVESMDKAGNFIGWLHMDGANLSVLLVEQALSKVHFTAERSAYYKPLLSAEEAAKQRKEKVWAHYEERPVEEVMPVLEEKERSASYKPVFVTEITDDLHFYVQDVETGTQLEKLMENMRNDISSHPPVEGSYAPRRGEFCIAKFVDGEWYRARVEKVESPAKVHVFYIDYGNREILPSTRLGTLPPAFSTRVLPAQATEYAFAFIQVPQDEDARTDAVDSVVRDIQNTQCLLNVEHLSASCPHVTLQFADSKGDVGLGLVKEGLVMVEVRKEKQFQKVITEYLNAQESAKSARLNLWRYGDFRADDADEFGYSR

T2: His6-SND1ΔC (SND1 residues 1-339) (human, UniProt Q7KZF4 1-339)
T2 construct: not shown: N-terminal His tag (His6, His8 or His) with TEV site, pQlink vector
T2 sequence: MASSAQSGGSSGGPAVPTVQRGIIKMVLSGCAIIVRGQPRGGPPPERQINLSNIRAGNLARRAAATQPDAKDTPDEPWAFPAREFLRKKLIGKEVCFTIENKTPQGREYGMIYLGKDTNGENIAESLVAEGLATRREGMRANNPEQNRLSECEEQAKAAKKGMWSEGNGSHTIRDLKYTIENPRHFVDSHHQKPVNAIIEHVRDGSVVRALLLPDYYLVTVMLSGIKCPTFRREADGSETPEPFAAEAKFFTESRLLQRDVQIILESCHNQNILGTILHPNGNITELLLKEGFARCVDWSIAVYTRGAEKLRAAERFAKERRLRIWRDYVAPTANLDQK


How the values were obtained:
[1] = molecular target: T1, murine SND1, wild type; experiment: co-IP (anti-MTDH) from reconstituted PyMT;Mtdh-/- tumor cells, western blot
Excerpt: IP lysates were subjected to western blotting with indicated antibodies.
In particular, genetic deletion of Mtdh in mice impairs the tumor-initiating potential of mammary epithelial cells transformed by diverse oncogenes (PyMT, Wnt, ErbB2) or carcinogen stimuli, and this defect can be readily rescued by reintroducing MTDH into Mtdh-knockout (Mtdh−/−) tumor cells by lentiviral transduction. To test whether interacting with SND1 is important for the tumor-initiating effect of MTDH, the murine form of WT or mutant MTDH (W394A or W401A, corresponding mutations in mouse are W391A, W398A) was stably expressed in mammary tumor cells from PyMT;Mtdh−/− mice. […] To examine how MTDH mutations affect tumor formation in vivo, PyMT;Mtdh−/− tumor cells were orthotopically transplanted into the mammary fat pads of WT recipient mice. […] Furthermore, the size of tumors formed by PyMT;Mtdh−/− tumor cells reconstituted with mutant MTDH was much smaller than that with WT MTDH (FIG. 23D-E).

[2] = molecular target: His-SND1 (16-339), SN1/2 domains, wild type (human) (UniProt Q7KZF4); experiment: GST pull-down on glutathione resin, SDS-PAGE, Coomassie blue; normalised percentage of binding, mean±SEM of three experiments
[3] = molecular target: T2, His6-SND1ΔC (SND1 residues 1-339); experiment: GST pull-down of His6-SND1ΔC, SDS-PAGE, Coomassie
Excerpt: FIGS. 7A-E represents determination of key regions and residues mediating the MTDH-SND1 interaction. (FIG. 7A) Schematics of MTDH fragments and mutants with indicated SND1-binding capability. + indicates binding and − indicates no binding based on results shown below. Two putative nuclear localization signals are residues 432-451 for NLS2 and residues 561-580 for NLS3. […] (FIG. 7B) Pulldown of His6-SND1ΔC by GST-tagged MTDH fragments with indicated boundaries. The bound proteins were examined by SDS-PAGE and visualized by Coomassie blue staining. […] For (FIG. 7B) and (FIG. 7C), 1/10 of the His6-SND1ΔC input was shown, and GST alone was used as a negative control. Representative results of 3 independent experiments are shown. (FIG. 7D, FIG. 7E) Lysates from HEK293T cells expressing the indicated ectopic human SND1, AGO2 or MTDH were immunoprecipitated with anti-Myc and immunoblotted with the indicated antibodies.
TPM1 comprises mutations D389R, D393R and W394D. TPM2 comprises mutations E399R, E400R and W401D. TPM3 comprises mutations W404D, D406R and E407R. […] The mutations are also set out in Table 3.

Binder | binding result [1] | binding result [3] | further results
murine MTDH TPM2 (E396R, E397R, W398D) (other, mouse, UniProt Q80WJ7 1-579, looked up, also called TPM2 (murine form)) MAARSWQDELAQQAEEGSARLRELLSVGLGFLRTELGLDLGLEPKRYPGWVILVGTGALGLLLLFLLGYGWAAACAGARKKRRSPPRKREEAAPPTPAPDDLAQLKNLRSEEQKKKNRKKLPEKPKPNGRTVEVPEDEVVRNPRSITAKQAPETDKKNEKSKKNKKKSKSDAKAVQNSSRHDGKEVDEGAWETKISHREKRQQRKRDKVLTDSGSLDSTIPGIENIITVTTEQLTTASFPVGSKKNKGDSHLNVQVSNFKSGKGDSTLQVSSRLNENLTVNGGGWSEKSVKLSSQLSEEKWNSVPPASAGKRKTEPSAWTQDTGDTNANGKDWGRNWSDRSIFSGIGSTAEPVSQSTTSDYQWDVSRNQPYIDDEWSGLNGLSSADPSSDWNAPARRDGNWVDEDRASLLKSQEPISNDQKVSDDDKEKGEGALPTGKSKKKKKKKKKQGEDNSHTQDTEDLEKDTREELPVNTSKARPKQEKACSLKTMSTSDPAEVLIKNSQPVKTLPPAISAEPSITLSKGDSDNSSSQVPPMLQDTDKPKSNAKQNSVPPSQTKSETNWESPKQIKKKKKARRET | no binding |  | 
murine MTDH W391A (printed as W394A in human numbering) (other, mouse, UniProt Q80WJ7 1-579, looked up, also called W394A (murine form)) MAARSWQDELAQQAEEGSARLRELLSVGLGFLRTELGLDLGLEPKRYPGWVILVGTGALGLLLLFLLGYGWAAACAGARKKRRSPPRKREEAAPPTPAPDDLAQLKNLRSEEQKKKNRKKLPEKPKPNGRTVEVPEDEVVRNPRSITAKQAPETDKKNEKSKKNKKKSKSDAKAVQNSSRHDGKEVDEGAWETKISHREKRQQRKRDKVLTDSGSLDSTIPGIENIITVTTEQLTTASFPVGSKKNKGDSHLNVQVSNFKSGKGDSTLQVSSRLNENLTVNGGGWSEKSVKLSSQLSEEKWNSVPPASAGKRKTEPSAWTQDTGDTNANGKDWGRNWSDRSIFSGIGSTAEPVSQSTTSDYQWDVSRNQPYIDDEWSGLNGLSSADPSSDANAPAEEWGNWVDEDRASLLKSQEPISNDQKVSDDDKEKGEGALPTGKSKKKKKKKKKQGEDNSHTQDTEDLEKDTREELPVNTSKARPKQEKACSLKTMSTSDPAEVLIKNSQPVKTLPPAISAEPSITLSKGDSDNSSSQVPPMLQDTDKPKSNAKQNSVPPSQTKSETNWESPKQIKKKKKARRET | no binding |  | 
murine MTDH W398A (printed as W401A in human numbering) (other, mouse, UniProt Q80WJ7 1-579, looked up, also called W401A (murine form)) MAARSWQDELAQQAEEGSARLRELLSVGLGFLRTELGLDLGLEPKRYPGWVILVGTGALGLLLLFLLGYGWAAACAGARKKRRSPPRKREEAAPPTPAPDDLAQLKNLRSEEQKKKNRKKLPEKPKPNGRTVEVPEDEVVRNPRSITAKQAPETDKKNEKSKKNKKKSKSDAKAVQNSSRHDGKEVDEGAWETKISHREKRQQRKRDKVLTDSGSLDSTIPGIENIITVTTEQLTTASFPVGSKKNKGDSHLNVQVSNFKSGKGDSTLQVSSRLNENLTVNGGGWSEKSVKLSSQLSEEKWNSVPPASAGKRKTEPSAWTQDTGDTNANGKDWGRNWSDRSIFSGIGSTAEPVSQSTTSDYQWDVSRNQPYIDDEWSGLNGLSSADPSSDWNAPAEEAGNWVDEDRASLLKSQEPISNDQKVSDDDKEKGEGALPTGKSKKKKKKKKKQGEDNSHTQDTEDLEKDTREELPVNTSKARPKQEKACSLKTMSTSDPAEVLIKNSQPVKTLPPAISAEPSITLSKGDSDNSSSQVPPMLQDTDKPKSNAKQNSVPPSQTKSETNWESPKQIKKKKKARRET | no binding |  | 
GST-MTDH (364-582) W401A (protein, not shown: a dimerising Fc or GST) YQWDVSRNQPYIDDEWSGLNGLSSADPNSDWNAPAEEAGNWVDEERASLLKSQEPIPDDQKVSDDDKEKGEGALPTGKSKKKKKKKKKQGEDNSTAQDTEELEKEIREDLPVNTSKTRPKQEKAFSLKTISTSDPAEVLVKNSQPIKTLPPATSTEPSVILSKSDSDKSSSQVPPILQETDKSKSNTKQNSVPPSQTKSETSWESPKQIKKKKKARRET |  |  | % Maximum binding [2]: 6%
GST-MTDH (364-582) W394D (protein, not shown: a dimerising Fc or GST) YQWDVSRNQPYIDDEWSGLNGLSSADPNSDDNAPAEEWGNWVDEERASLLKSQEPIPDDQKVSDDDKEKGEGALPTGKSKKKKKKKKKQGEDNSTAQDTEELEKEIREDLPVNTSKTRPKQEKAFSLKTISTSDPAEVLVKNSQPIKTLPPATSTEPSVILSKSDSDKSSSQVPPILQETDKSKSNTKQNSVPPSQTKSETSWESPKQIKKKKKARRET |  |  | % Maximum binding [2]: 4%
GST-MTDH (364-582) TPM1 (D389R, D393R, W394D) (other, not shown: N-terminal GST tag with TEV site, pQlink vector) YQWDVSRNQPYIDDEWSGLNGLSSARPNSRDNAPAEEWGNWVDEERASLLKSQEPIPDDQKVSDDDKEKGEGALPTGKSKKKKKKKKKQGEDNSTAQDTEELEKEIREDLPVNTSKTRPKQEKAFSLKTISTSDPAEVLVKNSQPIKTLPPATSTEPSVILSKSDSDKSSSQVPPILQETDKSKSNTKQNSVPPSQTKSETSWESPKQIKKKKKARRET |  | no binding | 
GST-MTDH (364-582) TPM2 (E399R, E400R, W401D) (other, not shown: N-terminal GST tag with TEV site, pQlink vector) YQWDVSRNQPYIDDEWSGLNGLSSADPNSDWNAPARRDGNWVDEERASLLKSQEPIPDDQKVSDDDKEKGEGALPTGKSKKKKKKKKKQGEDNSTAQDTEELEKEIREDLPVNTSKTRPKQEKAFSLKTISTSDPAEVLVKNSQPIKTLPPATSTEPSVILSKSDSDKSSSQVPPILQETDKSKSNTKQNSVPPSQTKSETSWESPKQIKKKKKARRET |  | no binding | 
GST-MTDH (1-289) (other, not shown: N-terminal GST tag with TEV site, pQlink vector) MAARSWQDELAQQAEEGSARLREMLSVGLGFLRTELGLDLGLEPKRYPGWVILVGTGALGLLLLFLLGYGWAAACAGSRKKRRSPPRKREEAAAVPAAAPDDLALLKNLRSEEQKKKNRKKLSEKPKPNGRTVEVAEGEAVRTPQSVTAKQPPEIDKKNEKSKKNKKKSKSDAKAVQNSSRHDGKEVDEGAWETKISHREKRQQRKRDKVLTDSGSLDSTIPGIENTITVTTEQLTTASFPVGSKKNKGDSHLNVQVSNFKSGKGDSTLQVSSGLNENLTVNGGGWNEK |  | no binding | 
